According to patent publication US20220133849A1:

Target: Maxi-K channel of rat bladder detrusor smooth muscle (endogenous) (rat) (UniProt Q62976)
Assay: cell-based or functional assay

Chain of UniProt Q62976 (Q62976 whole entry): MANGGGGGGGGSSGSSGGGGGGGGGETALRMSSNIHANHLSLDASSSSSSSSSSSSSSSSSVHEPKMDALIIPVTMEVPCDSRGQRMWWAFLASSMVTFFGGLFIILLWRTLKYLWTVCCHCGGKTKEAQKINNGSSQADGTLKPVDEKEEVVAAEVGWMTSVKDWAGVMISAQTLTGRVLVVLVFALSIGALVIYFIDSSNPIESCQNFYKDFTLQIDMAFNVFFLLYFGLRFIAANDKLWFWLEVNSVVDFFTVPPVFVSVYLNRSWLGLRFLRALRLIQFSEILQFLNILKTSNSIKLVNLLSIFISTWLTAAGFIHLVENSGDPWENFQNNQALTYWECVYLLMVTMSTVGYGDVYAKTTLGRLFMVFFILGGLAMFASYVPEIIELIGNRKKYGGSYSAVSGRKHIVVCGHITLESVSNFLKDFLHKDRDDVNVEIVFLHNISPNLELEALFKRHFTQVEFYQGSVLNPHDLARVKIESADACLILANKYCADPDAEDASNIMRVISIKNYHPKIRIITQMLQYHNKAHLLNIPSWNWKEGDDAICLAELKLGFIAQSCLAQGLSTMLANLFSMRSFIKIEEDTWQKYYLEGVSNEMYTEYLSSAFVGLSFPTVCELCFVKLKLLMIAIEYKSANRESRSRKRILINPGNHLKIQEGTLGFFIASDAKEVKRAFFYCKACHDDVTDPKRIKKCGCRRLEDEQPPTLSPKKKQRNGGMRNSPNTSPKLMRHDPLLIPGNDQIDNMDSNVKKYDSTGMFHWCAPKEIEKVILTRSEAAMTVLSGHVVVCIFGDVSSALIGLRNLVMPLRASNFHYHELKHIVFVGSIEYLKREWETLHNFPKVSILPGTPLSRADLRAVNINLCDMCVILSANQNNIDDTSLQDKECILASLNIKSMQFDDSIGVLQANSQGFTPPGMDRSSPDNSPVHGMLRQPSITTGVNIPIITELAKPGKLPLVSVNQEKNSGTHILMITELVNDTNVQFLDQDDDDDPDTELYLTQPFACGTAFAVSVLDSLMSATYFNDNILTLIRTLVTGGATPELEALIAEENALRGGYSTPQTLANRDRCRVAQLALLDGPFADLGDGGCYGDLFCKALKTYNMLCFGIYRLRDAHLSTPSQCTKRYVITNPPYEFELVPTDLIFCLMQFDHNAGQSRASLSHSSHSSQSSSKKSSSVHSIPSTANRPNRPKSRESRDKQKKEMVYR

Substance: iberiotoxin (from UniProt P24663 1-37) (peptide)
- outward current in response to applied voltage, single whole-cell patch clamp of isolated rat detrusor cells, 300 nM IBTX: > 50%
